Measurements from patent US20260043816A1 (AC IMMUNE, published 2026).
Square brackets hold non-standard residues; d marks the D form. Ends that are not written are not given here. * marks the point of attachment. Biotin = O=C1N[C@H]2[C@H](CS[C@H]2CCCCC(=O)*)N1; pS = N[C@@H](COP(=O)(O)O)C(=O)O

T1: Peptide 28 (human, phosphoserine at pS403 and pS404 (human TDP-43 numbering, in the SEQ ID NO: 8 part); Trioxatridecan-succinamic acid (Ttds) linker between SEQ ID NO: 7 and SEQ ID NO: 8)
T1 peptide: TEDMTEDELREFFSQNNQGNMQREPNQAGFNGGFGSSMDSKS

T2: Peptide 29 (human, phosphoserine at pS409 and pS410 (human TDP-43 numbering, in the SEQ ID NO: 9 part); Trioxatridecan-succinamic acid (Ttds) linker between SEQ ID NO: 7 and SEQ ID NO: 9)
T2 peptide: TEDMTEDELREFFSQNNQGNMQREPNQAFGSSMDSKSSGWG

T3: TDP-43 peptide consisting of amino acid sequence (SEQ ID NO: 5) (comprising pS375 and pS379) (human)
T3 construct: also called target peptide
T3 peptide: GNNSY[pS]GSN[pS]GAAIG

T4: biotinylated non-phosphorylated TDP-43 peptide 366-414 (human, biotin on the N-terminus)
T4 peptide: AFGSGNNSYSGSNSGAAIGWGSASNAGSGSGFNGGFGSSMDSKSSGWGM

T5: biotinylated TDP-43 phospho peptide 401-413 (pS410) (human)
T5 peptide: Biotin-FGSSMDSKS[pS]GWG

T6: biotinylated TDP-43 phospho peptide 401-413 (pS409 and pS410) (human)
T6 peptide: Biotin-FGSSMDSK[pS][pS]GWG

T7: biotinylated TDP-43 phospho peptide 396-409 (pS404) (human)
T7 peptide: Biotin-GFNGGFGS[pS]MDSKS

T8: biotinylated TDP-43 phospho peptide 396-409 (pS403) (human, phosphoserine at 403 (SEQ ID NO: 1 numbering); biotin on the N-terminus)
T8 peptide: GFNGGFGSSMDSKS

T9: biotinylated TDP-43 phospho peptide 401-413 (pS409) (human)
T9 peptide: Biotin-FGSSMDSK[pS]SGWG

T10: biotinylated TDP-43 phospho peptide 396-409 (pS403 and pS404) (human, phosphoserine at 403 and 404 (SEQ ID NO: 1 numbering); biotin on the N-terminus)
T10 peptide: GFNGGFGSSMDSKS


What was measured:
Peptide 28 = biological target: T1, Peptide 28; assay: SPR Biacore 8K, antibody captured, peptide analyte, single-cycle kinetics, 1:1 fit
Description: (§1) Each cycle started with the non-covalent capture of the antibody which were diluted in running buffer to a final concentration of 5 μg/mL and injected for 120 sec with a flow rate of 10 μL/min. Antibodies being measured were captured in channels […], leaving Fc 1 as a blank Fc. Capture levels were evaluated following a 120 sec stabilization period after each antibody injection. ACI-7071-809F12-Ab1-rec2 was used as control, binding to the non-phosphorylated sequences represented in peptides 28 and 29.
(§2) Injections of peptides 28 or 29 were performed using single-cycle kinetics with increasing concentrations ranging from 1.2 to 100 nM prepared as a 3-fold serial dilution. Injections were performed with contact times of 300 sec/injection at a flow rate of 30 μL/min. A dissociation phase of 900 sec followed the final injection. Sensor surface was regenerated by two injection of 10 mM Glycine-HCl pH 1.7 at a flow rate of 10 μL/min for 60 sec, followed by a stabilization period of 120 sec. Results obtained from single-cycle kinetics were double-referenced using the blank Fc 1 and buffer cycles and evaluated by Biacore 8K evaluation software (Cytiva). The following kinetic parameters were obtained using the 1:1 binding fit model with variable Reflective Index (RI): association rate constant (ka), dissociation rate constant (kd), affinity constant (KD) and saturation response (Rmax).

Peptide 29 = biological target: T2, Peptide 29; assay: as above
Description: as §1, §2

[1] = biological target: T3, TDP-43 peptide consisting of amino acid …; assay: SPR, antibody on chip, peptide analyte
Description: For antibodies ACI-8070-942.30D12-Ab1 and ACI-7071-809F12-Ab1-rec2 affinity was measured on Biacore 5200 instrument (Cytiva, Switzerland). The instrument was primed with running buffer HBS-P+ (10× HBS-P+ diluted to 1× in Milli-Q water) and flow-cells (Fc) 1-4 of a CM7 Series S sensor chip (Cytiva, 29147020) were activated with a fresh solution of EDC/NHS (Amine Coupling Kit type 2, BR100633, Cytiva) 1:1 ratio of both reagents at 10 μL/min for 420 sec and polyclonal rabbit anti-mouse IgG antibody (Cytiva, 29215281) was immobilized at […] in 10 mM sodium acetate pH 5.0 for 420 sec. Next, all Fc were quenched with 1 M ethanolamine (Cytiva, BR100633) for 420 sec. Immobilization levels were evaluated following ethanolamine quenching. A mouse IgG2a isotype control antibody and ACI-8070-942.30D12-Ab1 were captured on Fc 1 and Fc 2, respectively. Antibodies were diluted in 10 mM sodium acetate pH5.5 to a final concentration of 50 μg/mL and injected using the aim immobilization level functionality with a target of 10000 RU. […] Results obtained from single-cycle kinetics were double-referenced using the blank Fc 1 and buffer cycles and evaluated using the Biacore Insight Evaluation software (Cytiva). […]

[2] = biological target: T11, recombinant full length TDP-43 (SEQ ID NO: 1, FL TDP-43) (human, UniProt Q13148 1-414); assay: pairing sandwich ELISA, antibody coated as capture, FL TDP-43 titrated
T11 construct: also called recombinant human soluble FL TDP-43; soluble human TDP-43
Description: (§3) The capacity of antibodies to bind phospho TDP-43 and TDP-43 was determined using a sandwich enzyme-linked immunosorbent assay (ELISA), where each antibody was paired with a second TDP-43 antibody previously characterized for TDP-43 binding and performance in sandwich immunoassays, ACI-7071-809F12-Ab1-rec2 (as described in WO2020234473) or ACI-7069-636E5-Ab1 (as described in WO2020234473). ELISA plates (Nunc™ Edge™ 96-Well, Non-Treated, Flat-Bottom Microplate, ThermoFisher Scientific, Denmark) were coated with 5 μg/mL of anti-phospho TDP-43 or anti-TDP-43 antibodies in carbo/bicarbonate buffer, overnight at 4° C. Plates were then washed with 0.05% Tween-20/PBS and blocked with 1% bovine serum albumin (BSA) in 0.05% Tween-20/PBS for 1 hour at 37° C. The plates were then washed again as described above.
Serial-dilutions of target peptide or protein were then added to the plates. For assays with anti-phospho TDP-43 antibodies, one of four peptide conjugates (peptides 11, 23, 28, or 29) each composed of two TDP-43 sequences, one phosphorylated and one non-phosphorylated, conjugated together with a Trioxatridecan-succinamic acid linker (Ttds, binding regions and sequences shown in Table 4) were used. Peptides 11, 23, 28, and 29 were added in a 10-fold serial dilution starting at 0.5 μM. For assays with TDP-43 antibodies only, recombinant full length TDP-43 (SEQ ID NO: 1, FL TDP-43) was diluted 3-fold from 21.9 pM. Plates were incubated for 1 hour at 37° C., and then washed. […] PEG-biotinylated phospho TDP-43 or TDP-43 antibodies were then respectively added to the wells and incubated for 1 hour at 37° C., after which the plates were washed. Horseradish peroxidase (HRP)-conjugated streptavidin (R&D Systems, Switzerland) was added at 1/200 dilution in 1% BSA and 0.05% Tween-20/PBS for 45 min at room temperature. […] The plate was read at 450 nm using an ELISA plate reader (Tecan, Switzerland).

[3] = biological target: T4, biotinylated non-phosphorylated TDP-43 …; assay: capture ELISA, antibody on anti-mouse IgG, biotinylated peptide
Description: (§4) Briefly, for capture detection in ELISA, wells of 96-well plates were coated with 5 μg/mL goat anti-mouse IgG (Fc gamma fragment specific), in carbonate buffer, overnight at 4° C. Plates were then washed with 0.05% Tween-20/PBS and blocked with 1% bovine serum albumin (BSA) in 0.05% Tween-20/PBS for 1 hour at 37° C. Phospho TDP-43 antibodies were then added at 5 μg/mL and incubated for 2 hours at 37° C. after which the plates were washed as described above. Biotinylated peptides representing each of the phospho sites, or non-phosphorylated, were incubated at 0.5 mM in 0.1% BSA and PBS for 1 hour at 37° C. after which the plates were washed. A streptavidin-HRP-conjugate (R&D Systems, Minnesota, United States) was added at 1/200 dilution in 0.05% Tween-20/1% BSA in PBS for 45 minutes in the dark at ambient temperature. After the final wash, plates were incubated with TMB (Sigma-Aldrich, Switzerland), an HRP substrate solution, and read at 405 nm using an ELISA plate reader (Tecan, Switzerland).

[4] = biological target: T5, biotinylated TDP-43 phospho peptide …; assay: as above
Description: as §4

[5] = biological target: T6, biotinylated TDP-43 phospho peptide …; assay: as above
Description: as §4

[6] = biological target: T7, biotinylated TDP-43 phospho peptide …; assay: as above
Description: as §4

[7] = biological target: T8, biotinylated TDP-43 phospho peptide …; assay: as above
Description: as §4

[8] = biological target: T9, biotinylated TDP-43 phospho peptide …; assay: as above
Description: as §4

[9] = biological target: T10, biotinylated TDP-43 phospho peptide …; assay: as above
Description: as §4

[10] = biological target: T11, recombinant full length TDP-43 (SEQ ID …); assay: pairing sandwich ELISA, biotinylated antibody as detector, FL TDP-43 titrated
Description: as §3
Serial-dilutions of target peptide or protein were then added to the plates. For assays with anti-phospho TDP-43 antibodies, one of four peptide conjugates (peptides 11, 23, 28, or 29) each composed of two TDP-43 sequences, one phosphorylated and one non-phosphorylated, conjugated together with a Trioxatridecan-succinamic acid linker (Ttds, binding regions and sequences shown in Table 4) were used. Peptides 11, 23, 28, and 29 were added in a 10-fold serial dilution starting at 0.5 μM. […] The plate was read at 450 nm using an ELISA plate reader (Tecan, Switzerland).

[11] = biological target: T11, recombinant full length TDP-43 (SEQ ID …); assay: SPR Biacore T200, FL TDP-43 immobilized, antibody analyte (avidity), 1:1 fit
Description: Binding avidity of ACI-7071-4665-B5-R3B-Ab2 to soluble FL TDP-43 was evaluated by determining the KD value using SPR (Biacore T200, GE Healthcare Life Sciences). Recombinant human soluble FL TDP-43 was immobilized on a CM5 Series S sensor chip (GE Healthcare Life Sciences) by amine coupling. Soluble TDP-43 was immobilized at a concentration of 5 μg/ml in 10 mM sodium acetate (pH 4.5) with a flow rate of 5 μl/min for 420 seconds resulting in an immobilization level of 150 RU. […] Antibodies were injected at a flow rate of […] for 90 seconds contact time and 700 seconds dissociation phase followed by three regenerations with 10 mM glycine-HCl (pH 1.7). For the optimized SPR protocol the antibodies were diluted 3-fold starting from 300 nM and dilute down to 1.2 nM and injected for 300 seconds at 30 μL/min followed by 600 seconds of dissociation. The chip surface was regenerated by one injection with 10 mM glycine-HCl (pH 1.7). Results obtained from binding kinetics were double referenced using a blank flow cell and a buffer cycle, and were evaluated with a global 1:1 fitting model with RI.

Kd (Peptide 28) [nM] | koff (Peptide 28) [s⁻¹] | kon (Peptide 28) [M⁻¹ s⁻¹] | Kd (Peptide 29) [nM] | koff (Peptide 29) [s⁻¹] | kon (Peptide 29) [M⁻¹ s⁻¹] | binding result [1] | EC50 [2] [nM] | binding result [3] | binding result [4] | binding result [5] | binding result [6] | binding result [7] | binding result [8] | binding result [9] | EC50 [10] [nM] | Kd [11] [nM] | koff [11] [s⁻¹] | kon [11] [M⁻¹ s⁻¹] | Binder
4.5 | 0.00231 | 514000 | 7 | 0.00343 | 490000 | no binding | 0.181 | – | – | – | – | – | – | – | – | – | – | – | ACI-7071-809F12-Ab1-rec2 (as described in WO2020234473) (antibody, V domains shown, also called 809F12D8) VH: QVQLKESGPGLVAPSQSLSITCTVSGFSLNRNGVQWVRQPPGKGLEWLGVIWPGGSTNCNSALMSRLSISKDNSKSQVFLKMNSLHTDDTGIYYCARVGGNYVWDYNNYAWGQGTLVTVSA VL: DVLMTQTPLSLPVSLGDQASISCRSSQNIVHSIGNTYLEWYLQKPGQSPKLLIYKVSNRFSGVPDRFSGSGSGTDFTLKISRVEAEDLGVYYCFQGSHVPYTFGGGTKLEIR
– | – | – | – | – | – | – | 0.072 | binds | no binding (tested: peptide at 0.5 mM) | no binding (tested: peptide at 0.5 mM) | no binding (tested: peptide at 0.5 mM) | no binding (tested: peptide at 0.5 mM) | no binding (tested: peptide at 0.5 mM) | no binding (tested: peptide at 0.5 mM) | 0.181 | 0.39 | 1.66e-05 | 42900 | ACI-7071-4665-B5-R3B-Ab2 (antibody, mouse IgG2a, V domains shown, also called 4665-B5-R3B-B8; ACI-7071-4665-B5-Ab2) VH: QVQLKQSGPELVKPGASVKLSCKASGYTFTTYDINWVKQRPGQGPEWIGWIYPRVGNTKYNEKFKDKATLTVDTSSSTAYMELHSLTSEDSAVYFCASALTYWGQGTLVTVSA VL: not shown
– | – | – | – | – | – | – | – | no binding (tested: peptide at 0.5 mM) | no binding (tested: peptide at 0.5 mM) | no binding (tested: peptide at 0.5 mM) | no binding (tested: peptide at 0.5 mM) | no binding (tested: peptide at 0.5 mM) | no binding (tested: peptide at 0.5 mM) | no binding (tested: peptide at 0.5 mM) | – | – | – | – | ACI-8070-942.30D12-Ab1 (antibody, V domains shown, Mouse hybridoma antibody; also called 942.30D12F9; pS375/pS379 TDP-43 antibody) VH: DVQLVESGGGLVQPGGSRKLSCEASGFTFSSIGMHWVRQAPEKGLEWVAYITSGSSTIYYADTVKGRFTISRDNPKNTLFLQMTSLRSEDTAIYYCAGSGPGTDYWGQGTTLTVSS VL: DIKMTQSPSSMYASLGERVTITCKASQDINSYLSWFQQKPGKSPKTLIYRANRLVDGVPSRFSGSGSGQDYSLTISSLEYEDMGIYYCLQYDEFPLTFGAGTKLELK
